Columns and labels:
[1] = molecular target: TRPC4β, CFP- or YFP-tagged (UniProt Q9QUQ5); assay: FRET or BRET; three-cube FRET in living cells expressing Gαq (WT)-YFP, M3 and TRPC1α with TRPC4β-CFP or CFP-TRPC5; after stimulation with 100 μM CCh
[2] = molecular target: TRPC5, CFP- or YFP-tagged (UniProt Q9QX29); assay: as above
UniProt Q9QX29, sequence (Q9QX29 whole entry): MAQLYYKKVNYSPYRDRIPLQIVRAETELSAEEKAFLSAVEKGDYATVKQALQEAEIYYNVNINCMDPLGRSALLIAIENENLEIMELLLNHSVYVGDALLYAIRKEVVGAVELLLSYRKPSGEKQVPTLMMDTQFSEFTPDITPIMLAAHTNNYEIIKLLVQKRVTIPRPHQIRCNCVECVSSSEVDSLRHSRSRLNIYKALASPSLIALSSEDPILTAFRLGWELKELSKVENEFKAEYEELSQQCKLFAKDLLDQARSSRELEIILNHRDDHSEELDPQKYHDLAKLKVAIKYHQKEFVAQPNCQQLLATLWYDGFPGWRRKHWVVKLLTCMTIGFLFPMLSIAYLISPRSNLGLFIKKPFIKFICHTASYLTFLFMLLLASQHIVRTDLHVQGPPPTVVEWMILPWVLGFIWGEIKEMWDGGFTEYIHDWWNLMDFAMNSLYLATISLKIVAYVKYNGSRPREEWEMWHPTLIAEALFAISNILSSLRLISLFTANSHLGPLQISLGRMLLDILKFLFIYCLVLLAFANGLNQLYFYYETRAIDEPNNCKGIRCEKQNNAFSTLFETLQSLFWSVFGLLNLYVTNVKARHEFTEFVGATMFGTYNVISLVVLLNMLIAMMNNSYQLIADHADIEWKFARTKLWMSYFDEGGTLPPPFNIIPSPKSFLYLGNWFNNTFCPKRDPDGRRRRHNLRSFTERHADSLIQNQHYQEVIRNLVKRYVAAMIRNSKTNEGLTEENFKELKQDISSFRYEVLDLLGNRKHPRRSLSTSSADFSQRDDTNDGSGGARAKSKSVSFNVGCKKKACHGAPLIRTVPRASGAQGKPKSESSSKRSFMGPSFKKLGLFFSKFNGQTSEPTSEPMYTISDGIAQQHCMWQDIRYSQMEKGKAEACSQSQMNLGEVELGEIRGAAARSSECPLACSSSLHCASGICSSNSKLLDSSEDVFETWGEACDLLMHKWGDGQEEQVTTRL

UniProt Q9QUQ5, sequence (Q9QUQ5 other isoform, or with tags, fused parts or gaps): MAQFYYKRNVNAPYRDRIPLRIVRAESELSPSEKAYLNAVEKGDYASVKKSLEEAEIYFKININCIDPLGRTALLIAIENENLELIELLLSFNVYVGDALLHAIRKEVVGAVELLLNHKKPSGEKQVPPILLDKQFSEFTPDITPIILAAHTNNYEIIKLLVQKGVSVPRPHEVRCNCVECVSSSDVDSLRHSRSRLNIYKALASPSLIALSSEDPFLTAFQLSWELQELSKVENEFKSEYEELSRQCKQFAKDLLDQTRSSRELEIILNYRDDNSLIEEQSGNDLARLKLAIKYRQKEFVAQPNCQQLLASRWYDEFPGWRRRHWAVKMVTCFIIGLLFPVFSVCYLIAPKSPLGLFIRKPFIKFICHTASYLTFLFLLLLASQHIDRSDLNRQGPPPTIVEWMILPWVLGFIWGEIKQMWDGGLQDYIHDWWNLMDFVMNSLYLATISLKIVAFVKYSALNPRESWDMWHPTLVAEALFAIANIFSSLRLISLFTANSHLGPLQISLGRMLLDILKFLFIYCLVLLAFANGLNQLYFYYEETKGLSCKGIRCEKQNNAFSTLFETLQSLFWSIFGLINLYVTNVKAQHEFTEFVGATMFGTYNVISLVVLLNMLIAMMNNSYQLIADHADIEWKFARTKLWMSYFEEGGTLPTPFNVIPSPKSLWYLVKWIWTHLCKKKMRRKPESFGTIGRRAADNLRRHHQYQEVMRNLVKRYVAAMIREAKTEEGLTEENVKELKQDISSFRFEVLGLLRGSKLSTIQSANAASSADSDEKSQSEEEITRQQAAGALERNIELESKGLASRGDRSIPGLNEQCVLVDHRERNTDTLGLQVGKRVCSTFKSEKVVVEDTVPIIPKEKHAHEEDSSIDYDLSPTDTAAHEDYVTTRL

FRET efficiency (after 100 μM CCh) [1]: 8.8%
FRET efficiency (after 100 μM CCh) [2]: 15.9%
Substance: Gαq (WT)-YFP (from UniProt P50148 1-359) (natural protein)

Source: paper PMC6092394
